Measurements published in PMC4250914 (Scientific Reports, 2014).

Target: T1, His-VPS41 (human, UniProt P49754 1-854)
T1 sequence: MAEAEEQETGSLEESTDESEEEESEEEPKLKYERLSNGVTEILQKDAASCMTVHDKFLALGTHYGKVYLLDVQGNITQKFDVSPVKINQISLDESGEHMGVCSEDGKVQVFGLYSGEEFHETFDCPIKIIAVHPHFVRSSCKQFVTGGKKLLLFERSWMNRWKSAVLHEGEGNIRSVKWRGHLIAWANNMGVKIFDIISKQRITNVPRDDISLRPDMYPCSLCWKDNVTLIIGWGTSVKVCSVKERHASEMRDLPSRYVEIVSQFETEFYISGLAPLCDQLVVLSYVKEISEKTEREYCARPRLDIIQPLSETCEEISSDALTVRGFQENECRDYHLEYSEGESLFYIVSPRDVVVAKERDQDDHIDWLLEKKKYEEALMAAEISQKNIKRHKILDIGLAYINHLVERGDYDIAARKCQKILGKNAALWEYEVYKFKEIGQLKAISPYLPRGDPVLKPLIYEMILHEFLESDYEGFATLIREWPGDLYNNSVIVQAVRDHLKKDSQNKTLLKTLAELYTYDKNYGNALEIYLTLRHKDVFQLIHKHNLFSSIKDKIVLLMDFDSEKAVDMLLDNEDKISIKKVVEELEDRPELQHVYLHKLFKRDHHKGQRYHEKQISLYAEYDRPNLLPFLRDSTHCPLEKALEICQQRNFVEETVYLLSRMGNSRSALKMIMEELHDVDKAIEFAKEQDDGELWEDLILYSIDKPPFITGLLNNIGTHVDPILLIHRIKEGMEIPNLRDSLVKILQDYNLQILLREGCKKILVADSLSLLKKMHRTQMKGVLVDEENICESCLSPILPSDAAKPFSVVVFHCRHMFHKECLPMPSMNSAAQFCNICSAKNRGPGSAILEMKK
Experiment: pull-down

B1: GST-RILP (natural protein)
chain: MEPRRAAPGVPGWGSREAAGSASAAELVYHLAGALGTELQDLARRFGPEAAAGLVPLVVRALELLEQAAVGPAPDSLQVSAQPAEQELRRLREENERLRRELRAGPQEERALLRQLKEVTDRQRDELRAHNRDLRQRGQETEALQEQLQRLLLVNAELRHKLAAMQTQLRAAQDRERERQQPGEAATPQAKERARGQAGRPGHQHGQEPEWATAGAGAPGNPEDPAEAAQQLGRPSEAGQCRFSREEFEQILQERNELKAKVFLLKEELAYFQRELLTDHRVPGLLLEAMKVAVRKQRKKIKAKMLGTPEEAESSEDEAGPWILLSDDKGDHPPPPESKIQSFFGLWYRGKAESSEDETSSPAPSKLGGEEEAQPQSPAPDPPCSALHEHLCLGASAAPEA
Does B1 bind?
Result: binds
